Data as given in patent US20240279288A1, “APPLICATION OF PLANT JAZ PROTEINS AND DERIVED POLYPEPTIDES IN PREVENTION AND TREATMENT OF HUMAN AND ANIMAL TUMORS” (ANYANG INSTITUTE OF SINO-COTTON INDUSTRY INNOVATION, priority 2021, published 2024).
Entries after “also recorded” stand apart in the source; their conditions may differ.

Experiments:
[1] = test system: breast epithelial cells (MCF10A); assay: CCK8 cell viability detection, MCF10A; format: cell-based; settings: with the increase of GhJAZ1 protein concentration
Procedure: CCK8 cell viability detection: cell suspension was seeded in 96-well plates at a concentration of 5×10^4 cells/ml (100 μL/well). The plates were placed in the incubator for pre-culture (at 37° C., 5% CO2), and control and protein agents were added to each well 24 h after seeding. The plates were then placed in the incubator for 24 h, followed by addition of 10 μL CCK8 solution into each well and incubation of the plates in the incubator for 0.5-2 h before the absorbance measurement at 450 nm using a microplate reader.
We constructed GhJAZ1 prokaryotic expression plasmid with His-tag to express proteins (see step 2 in Example 4), and then a GhJAZ1 protein, along with 6 His tags, which was approximately 30 KD in size was found by WB detection (A in FIG. 7). The purified GhJAZ1 protein was used to treat breast cancer cells (MCF7) and breast epithelial cells (MCF10A), and the cell viability was measured with CCK8.

[2] = test system: normal breast epithelial cells MCF10A; assay: Apoptosis detection (Annexin V-FITC/PI), MCF10A; format: cell-based; settings: 0.691 μM, 24 h, vs PBS
Procedure: Apoptosis detection: cells were collected in 1.5 EP tubes and centrifuged at 300 g for 5 min, with the supernatant discarded, followed by collecting the cells, washing with PBS and resuspending. 1×10^5 resuspended cells were taken and centrifuged at 300 g for 5 min, with the supernatant discarded. The cells were washed with PBS, resuspended by adding 500 μl of diluted 1×Annexin V Binding Buffer working solution, and then a staining solution of 5 μL of Annexin V-FITC and 5 μL of propidium iodide (PI) were added and mixed well by vortex, followed by incubation at room temperature in the dark for 15-20 min, and detection on the instrument. Specifically, the Annexin V-FITC/PI fluorescent dual staining cell apoptosis detection kit (Wuhan Pricella Life Science & Technology Co., Ltd., Cat. No.: P-CA-201) was used.

MCF7 breast cancer cells = assay: Cell cycle detection (PI DNA content), MCF7; format: cell-based, human; settings: 0.691 μM, 24 h, vs PBS
Procedure: Cell cycle detection: cells were moderately digested by trypsin, and collected by centrifugation with supernatant removed, and then cells were washed with PBS, and collected by centrifugation at 1,500 rpm for 5 minutes to prepare a single-cell suspension (at a concentration of 1×10^6/ml). 1 ml of single-cell suspension was then taken and centrifuged with the supernatant discarded, and then 500 μl of 70% pre-cooled ethanol were added to fix the cells overnight at 4° C. The next day, cells were collected by centrifugation, resuspended with 1 ml of PBS and centrifuged, and then 100 μl of RNase A solution were added to the cell pellet, followed by placement in water bath at 37° C. for 30 min, and then 400 μl of PI staining solution was added and mixed well, followed by incubation at 4° C. in dark for 30 min and detection on the instrument to record under red fluorescence at the excitation wavelength of 488 nm. Specifically, a DNA content detection kit (cell cycle) (Solarbio, Cat. No.: CA1510) was used.

[3] = test system: downstream genes of c-Myc in MCF7 cells; assay: Transcriptome sequencing and RT-PCR of c-Myc downstream genes, MCF7; format: cell-based, human
Procedure: Identification at the RNA level: RNA was extracted using RNA extraction kit (RNAprep Pure Polysaccharide Polyphenol Plant Total RNA Extraction Kit (DP441), manufacturer: TIANGEN BIOTECH (BEIJING) CO., LTD.), and then cDNA was obtained using two-step reverse transcription kit (a third-generation premix for two-step de-genomization and reverse transcription, Cat. No.: MR05201). cDNA as a template was added into a 96-well plate, with addition of SYBR®Green I chimeric dye (an antibody dye quantitative PCR premix, Cat. No.: MQ10101) and gene primers for three-step qPCR amplification. Finally, the relative gene expression was calculated based on the Ct value.
And it was validated to be consistent with the transcriptome results (B in FIG. 9) by RT-PCR (the steps of method as Example 1). Wherein, the sequences of RT-PCR primers were as follows: […]
Wherein, the sequences of primers were as follows: […]

c-Myc = c-Myc (Homo sapiens, UniProt P01106); assay: CO-IP with c-Myc in HEK293 cells; format: binding; parameters: host or cells: HEK293 cells (method paragraph: 293T)
Sequence of c-Myc (P01106 whole entry): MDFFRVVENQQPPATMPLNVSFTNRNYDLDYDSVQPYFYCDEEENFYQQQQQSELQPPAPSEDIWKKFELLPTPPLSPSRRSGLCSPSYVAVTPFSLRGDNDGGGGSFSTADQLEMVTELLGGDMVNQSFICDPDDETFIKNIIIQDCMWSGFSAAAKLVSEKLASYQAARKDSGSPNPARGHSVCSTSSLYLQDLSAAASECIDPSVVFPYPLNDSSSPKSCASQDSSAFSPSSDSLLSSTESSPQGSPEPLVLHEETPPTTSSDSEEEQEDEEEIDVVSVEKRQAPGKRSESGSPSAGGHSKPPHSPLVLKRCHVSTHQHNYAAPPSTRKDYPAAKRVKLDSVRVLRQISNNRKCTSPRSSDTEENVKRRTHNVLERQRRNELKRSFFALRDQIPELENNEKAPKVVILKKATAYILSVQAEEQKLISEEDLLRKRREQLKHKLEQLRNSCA
Procedure: Steps of method of CO-IP experiment: Non-denaturing lysate was added to 293T cell culture plate (Pricella, Cat. No.: CL-0005), and the cells were completely lysed at 4° C. The lysate was centrifuged at 12,000 rpm for 10 min and the supernatant was collected. The corresponding antibody was added to the obtained non-denatured protein solution, which was incubated overnight at 4° C. Pierce™ protein A/G magnetic agarose (Thermo Fisher Scientific, Inc.) were washed with lysis buffer, followed by addition pre-treated beads to the cell lysate, and incubation at room temperature for 2 hours. The mixture was centrifuged at 4° C., 2,500 rpm for 5 min with supernatant removed, and the agarose beads were washed 5 times with 1 ml of lysis buffer. An appropriate amount of protein loading buffer was added to the pellet, and the sample was incubated in water bath at 100° C. for 10 min. The band of interest was detected by Western blotting.
Immunoprecipitation method (method of the experiment as Example 3) was used.

B1: GhJAZ1: cotton JAZ1 protein, gene number Gh_A05G0260, sequence SEQ ID No. 4; prokaryotically expressed with His tag, about 30 KD (protein)
chain: MSSCSESTAMKPARSPEKPSFAQTCNLLSQYLKEKGSFGDLSLGMTCNVEANGTPVVPPPTMNLFPLNDKSDDVCGRNGGNPKNLTSMDLFPQQAGLASKDDSPNKLEPQTAPMTIFYGGQVIVFNDFPANKAKEIMLLASNSSSQSNNSFNPIPFTSSIARSPIESSIGVPPTSKPVHPAQRAVPGDLPIARRASLHRFLEKRKDRITAKAPYQINNSAAAPSLSGDNKSWLGLAAQSP
modifications: His tag
notes: prokaryotically expressed with His tag, about 30 KD
viability of MCF10A cells [1]: did not change significantly; also recorded: without inhibitory effect
effect on apoptosis of normal cells (MCF10A) [2]: no significant effect
proportion of G2-M phase cells (MCF7) (MCF7 breast cancer cells): increase
proportion of S-phase cells (MCF7) (MCF7 breast cancer cells): decrease
expression of cell cycle-related genes (transcriptome, validated by RT-PCR) ([3]; MCF7, 0.691 μM, 24 h): down regulated
expression of CCNE1 ([3]; MCF7, RT-PCR): extremely significantly upregulated
expression of P21 gene ([3]; MCF7, RT-PCR): extremely significantly upregulated
expression of apoptosis related genes Bcl2, BAX, HK2, FASN, MCM5 downstream of c-Myc ([3]; MCF7, RT-PCR): extremely significantly downregulated
expression of cell cycle-related genes CCNA2, CCNB1, CCND1 ([3]; MCF7, RT-PCR): extremely significantly downregulated
interaction with c-Myc (c-Myc): interacted
